These results are taken from article PMC9585320 (Frontiers in Molecular Biosciences, 2022).

The target in one test is MazF6 library. The experiment in a line: flow cytometry on cells. On the technique in general: A flow cytometer gives signals particle by particle.
Test [1] concerns the target T1, MazF9 toxin, (His)6MazF(FLAG)3 (Mycobacterium tuberculosis, UniProt P71650 1-118).
T1 chain: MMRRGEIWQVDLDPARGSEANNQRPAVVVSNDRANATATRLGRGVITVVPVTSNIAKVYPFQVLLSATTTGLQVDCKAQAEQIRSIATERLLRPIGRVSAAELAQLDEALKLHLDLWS
The experiment in a line: MST.

B1: MazE6 antitoxin, full length, purified (natural protein)
chain: MKTAISLPDETFDRVSRRASELGMSRSEFFTKAAQRYLHELDAQLLTGQIDRALESIHGTDEAEALAVANAYRVLETMDDEW
With B1, in the test with MazF6 library, the Kd – broadly, the free concentration of one partner at which half of the binding sites on the other are occupied at equilibrium, for simple one-to-one binding – is 0.13 nM.

Turning to LEDDYANAWQEWSAAGDTDAWEQTVGDGVGDAPR [C-terminal MazE9 peptide (residues 43-76)], binding in test [1] was put at a Kd of 5.2 nM.

In test [1], RLAERDAEILATNTSATGDLDTLAGHCARTALDID [C-terminal MazE3 peptide (residues 72-106)] displayed a dissociation constant (Kd) of 173 nM.
